Test results as given in patent US8518892B2, “Methods to treat symptoms of pathophysiology related to body mass” (Board of Supervisors of Louisiana State University and …, priority 2005, dated 2013).

System: diet induced obese (DIO) C57BL/6J mice
Test: Enho 1 ip for 3 days in diet induced obese C57BL/6J mice (Examples 19-21)
Assay type: in vivo, mouse
Experimental: (§1) The effect of Enho-1 upon weight loss was tested over the course of 3 days using diet induced obese (DIO) C57BL/6J mice (Jackson Laboratories, Bar Harbor, Me.). The mice were fed Research Diets 12492 (60% kJ/fat) for 12 weeks, resulting in obesity and moderate hyperglycemia in the animals. The mice were approximately 20-22 weeks of age and 30-50 g in weight at the start of the experiment. Fasting blood glucose was determined to be approximately 170-220 mg/dL. Six control mice received vehicle only while six test mice each received doses of either 90 nmol/kg/d, 900 nmol/kg/d or 9000 nmol/kg/d. The injections were given as 3 ip injections at 0600, 1400 and 2000 h on days 1 and 2; over the 3 day period, the mice received a total of 7 injections. All animals were euthanized 5 hours after the last injection given the morning of the third day. Food was removed after the final injection.
as §1, with “insulin and glucose” for “weight loss”
The HOMA-IR for each treatment was calculated using the following formula: ((glucose mg/dL÷18)×(insulin ng/ml×25.05))÷22.5
as §1, with “liver weight, liver lipid content and liver TG” for “weight loss”

[1] = 90 nmol/kg/d ip, listed as Enho-1
[2] = 900 nmol/kg/d ip, listed as Enho-1
[3] = 9000 nmol/kg/d ip, listed as Enho-1

B1: Enho 1: human Enho 1, a 76 amino acid peptide having the sequence SEQ ID NO: 14 (peptide, listed as Homo sapiens)
chain: MGAAISQGALIAIVCNGLVGFLLLLLWVILCWACHSRSADVDSLSESSPNSSPGPCPEKAPPPQKPSHEGSYLLQP
90 nmol/kg/d ip
  Blood glucose: 204 mg/dL
  Delta body weight: 2.9%
  HOMA-IR: 50
  HOMA-IR decrease as compared to the control group: 15%
  Insulin: 3.8 ng/mL
  Liver TG: 57 mg/g
  Liver TG total: 86 mg/g
  Liver lipid: 126 mg/g
  Liver lipid total: 188 mg/g
  Liver weight: 1.5 grams
  Liver weight % body weight: 3.6%
  Weight (pre-treatment): 42.9 g
  Weight (termination): 41.7 g
[1]
  Blood glucose: 204 ± 7 mg/dL
  HOMA-IR: 50 ± 5
  HOMA-IR decrease as compared to the control group: (↓ 15%)
  Insulin: 3.8 ± 0.4 ng/mL
  Liver TG: 57 ± 8 mg/g
  Liver TG total: 86 ± 14 mg/g
  Liver lipid: 126 ± 8 mg/g
  Liver lipid total: 188 ± 13 mg/g
  Liver weight: 1.5 ± 0.0 grams
  Liver weight % body weight: 3.6 ± 0.1%
  Weight (pre-treatment): 42.9 ± 1.2 g
  Weight (termination): 41.7 ± 0.9 g
900 nmol/kg/d ip
  Delta body weight: 3.5%
  HOMA-IR: 42
  Insulin: 4.2 ng/mL
  Liver TG: 48 mg/g
  Liver TG total: 66 mg/g
  Liver lipid: 137 mg/g
  Liver lipid total: 226 mg/g
  Liver weight: 1.5 grams
  Liver weight % body weight: 3.5%
  Weight (pre-treatment): 42.8 g
  Weight (termination): 41.3 g
  blood glucose levels decrease: approximately 15%
  insulin levels reduction: about 14%
900 nmol/kg/d ip, P < 0.05 vs 90
  Blood glucose: 166 mg/dL
900 nmol/kg/d ip, P < 0.05 vs 90, listed as Enho-1
  Blood glucose: 166 ± 13 mg/dL
[2]
  HOMA-IR: 42 ± 3
  Insulin: 4.2 ± 0.5 ng/mL
  Liver TG: 48 ± 12 mg/g
  Liver TG total: 66 ± 14 mg/g
  Liver lipid: 137 ± 34 mg/g
  Liver lipid total: 226 ± 77 mg/g
  Liver weight: 1.5 ± 0.2 grams
  Liver weight % body weight: 3.5 ± 0.2%
  Weight (pre-treatment): 42.8 ± 2.9 g
  Weight (termination): 41.3 ± 2.7 g
900 nmol/kg/d ip, p<0.02
  HOMA-IR decrease as compared to the control group: 29%
900 nmol/kg/d ip, p<0.02, listed as Enho-1
  HOMA-IR decrease as compared to the control group: (↓ 29%)
9000 nmol/kg/d ip
  Blood glucose: 198 mg/dL
  Delta body weight: 4.1%
  HOMA-IR: 52
  HOMA-IR decrease as compared to the control group: 12%
  Insulin: 4.2 ng/mL
  Liver TG: 47 mg/g
  Liver TG total: 63 mg/g
  Liver lipid: 139 mg/g
  Liver lipid total: 230 mg/g
  Liver weight: 1.4 grams
  Liver weight % body weight: 3.4%
  Weight (pre-treatment): 42.7 g
  Weight (termination): 40.9 g
  liver TG reduction as compared to the control group: 18-19%
[3]
  Blood glucose: 198 ± 9 mg/dL
  HOMA-IR: 52 ± 4
  HOMA-IR decrease as compared to the control group: (↓ 12%)
  Insulin: 4.2 ± 0.3 ng/mL
  Liver TG: 47 ± 9 mg/g
  Liver TG total: 63 ± 10 mg/g
  Liver lipid: 139 ± 42 mg/g
  Liver lipid total: 230 ± 96 mg/g
  Liver weight: 1.4 ± 0.2 grams
  Liver weight % body weight: 3.4 ± 0.3%
  Weight (pre-treatment): 42.7 ± 1.6 g
  Weight (termination): 40.9 ± 1.6 g
9000 nmol/kg/d ip, p<0.05, 1-tailed t-test
  serum TG reduction as compared to the control group: 20%
